What all share (experiment): cell-based or functional assay
Test [1] concerns the target T1, GIP receptor (UniProt P48546 22-466, limits assumed).
T1 sequence (looked up): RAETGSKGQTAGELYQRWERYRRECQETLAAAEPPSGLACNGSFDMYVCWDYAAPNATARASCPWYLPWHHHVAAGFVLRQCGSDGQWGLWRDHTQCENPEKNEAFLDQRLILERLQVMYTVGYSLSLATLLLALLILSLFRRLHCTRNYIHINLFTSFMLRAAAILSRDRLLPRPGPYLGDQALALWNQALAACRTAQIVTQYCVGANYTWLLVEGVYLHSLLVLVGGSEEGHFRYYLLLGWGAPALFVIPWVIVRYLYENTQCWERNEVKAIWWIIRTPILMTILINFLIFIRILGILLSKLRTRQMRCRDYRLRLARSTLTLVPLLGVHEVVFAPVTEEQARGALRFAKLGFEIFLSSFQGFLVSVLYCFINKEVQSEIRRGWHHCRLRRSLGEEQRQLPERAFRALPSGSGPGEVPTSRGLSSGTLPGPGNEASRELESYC

Test [2] deals with T2, glucagon receptor (UniProt P47871 26-477, limits assumed).
T2 sequence (P47871 26-477 limits assumed): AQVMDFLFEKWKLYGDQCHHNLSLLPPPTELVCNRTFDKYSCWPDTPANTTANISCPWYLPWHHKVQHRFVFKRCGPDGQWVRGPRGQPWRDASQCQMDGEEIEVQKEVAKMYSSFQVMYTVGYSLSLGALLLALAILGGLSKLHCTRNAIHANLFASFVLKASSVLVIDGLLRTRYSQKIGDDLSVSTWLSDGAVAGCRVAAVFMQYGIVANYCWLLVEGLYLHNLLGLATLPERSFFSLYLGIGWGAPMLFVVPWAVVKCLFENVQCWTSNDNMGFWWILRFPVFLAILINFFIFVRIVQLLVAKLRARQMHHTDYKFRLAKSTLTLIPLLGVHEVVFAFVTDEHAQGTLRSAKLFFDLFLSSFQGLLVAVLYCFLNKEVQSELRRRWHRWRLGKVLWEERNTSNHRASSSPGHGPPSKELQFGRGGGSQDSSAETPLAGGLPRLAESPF
Test [3] addresses T3, GLP-1 receptor (UniProt P43220 24-463, limits assumed).
The target in test [4] is T1, GIP receptor. This is another data set of the same source.
Test [5] deals with T2, glucagon receptor. This is another data set of the same source.
The target of test [6] is T3, GLP-1 receptor. The source holds these as a separate data set.

Read-outs that look alike come from different tables or passages of the source. Bridges are numbered along the chain shown (N, C = ends). Where no end group is shown, it is not given here. Side-chain parts run from the residue outwards. [ ]: non-standard residue; d: D form. The star is where a group is joined. Isobutyryl(2-imidazol-4-yl) = CC(C)(C(=O)*)c1c[nH]cn1; PEG40kDa = 40 kDa polyethylene glycol attached; Palmitoyl = CCCCCCCCCCCCCCCC(=O)*; Aib = CC(C)(N)C(=O)O

B1: Analog No. 49: Aib2, K10acyl, Aib16, A10, D28, G29 + CEX (SEQ ID NO: 33) (peptide)
peptide: H[Aib]QGTFTSDKSKYLD[Aib]RAAQDFVQWLMDGGPSSGAPPPS-NH2
modifications: not fully specified (residue 10)
As to B1, the “EC50 (cAMP reporter)” value in test [1] turned out to be 248 pM; in test [2], 5 pM; in test [3], 4 pM.

B2: Analog No. 65: Aib2, E3, K10acyl, E16, Aib20, L27, D28, G29 + CEX (SEQ ID NO: 41) (peptide)
peptide: H[Aib]EGTFTSDK(Palmitoyl)SKYLDERRA[Aib]DFVQWLLDGGPSSGAPPPS-NH2
For the molecule B2, the “EC50 (cAMP reporter)” value in test [1] worked out at 13 pM; in test [2], 221 pM; in test [3] it was 6 pM.

B3: mt-220 (SEQ ID NO: 22) (peptide)
peptide: Y[Aib]EGTFISDYSIAMDKIHQQDFVCWLLAQKGKKNWLKHNITQ-NH2
modifications: not fully specified
Consider B3, for which the “EC50 (cAMP reporter)” value in test [4] stood at 10300 pM; in test [5], 9670 pM; in test [6], 180 pM. The entries for the “relative activity (to native hormone)” value in test [4], in test [5] and in test [6] were 0.19%, 1.18% and 13.9%, respectively.

B4: Analog No. 29: dSer2, K10acyl, E16, A18, L27, D28, G29 + CEX (SEQ ID NO: 27) (peptide)
peptide: H[dS]QGTFTSDKSKYLDERAAQDFVQWLLDGGPSSGAPPPS-NH2
modifications: not fully specified (residue 10)
On to B4, for which the “EC50 (cAMP reporter)” value in test [1] stood at 85 pM; in test [2] it was 3 pM; in test [3], 2 pM.

B5: Analog No. 44: DMIA1, dSer2, K10acyl, E16, A18, L27, D28 (SEQ ID NO: 32) (peptide)
peptide: [Isobutyryl(2-imidazol-4-yl)][dS]QGTFTSDKSKYLDERAAQDFVQWLLDT-NH2
modifications: not fully specified (residue 10)
With B5, the “EC50 (cAMP reporter)” value worked out at 103 pM in test [1], 4 pM in test [2] and 3 pM in test [3].

B6: mt-217 (SEQ ID NO: 19) (peptide)
peptide: Y[Aib]EGTFISDYSIAMDKIHQQDFVNWLLAQKGKKNWLKHNITQ-NH2
modifications: not fully specified
With B6, the “EC50 (cAMP reporter)” value in test [4] worked out at 9570 pM; in test [5], 13900 pM; in test [6], 222 pM. The “relative activity (to native hormone)” value in test [4] worked out at 0.2%; in test [5] it was 0.82%; in test [6] it was 11.3%.

B7: mt-227 (SEQ ID NO: 25) (peptide)
peptide: Y[Aib]QGTFTSDYSIYLDEQAAKEFVNWLLAGGPSSGAPPPSK-NH2
modifications: not fully specified
Take B7: the entries for the “EC50 (cAMP reporter)” value in test [4], in test [5] and in test [6] were 1320 pM, 4240 pM and 80 pM, respectively.

B8: mt-218 (SEQ ID NO: 20) (peptide)
peptide: YXEGTFISDYSIAMDKIHQQDFVNWLLAQKGKKNWLKHNITQ
modifications: not fully specified; AIB at position 2; C-terminal amide; Glu16-Lys20 lactam in some Table 3 peptides, absent in others (which ones is not stated)
In the case of B8, the results for the “EC50 (cAMP reporter)” value in test [4], in test [5] and in test [6] were 14300 pM, 16300 pM and 338 pM, respectively. The “relative activity (to native hormone)” value turned out to be 0.13% in test [4], 0.7% in test [5] and 7.4% in test [6].

B9: mt-226 (SEQ ID NO: 24) (peptide)
peptide: Y[Aib]PGTFISDYSIAMDKIHQQDFVCWLLAQKGKKNWLKHNITQ-NH2
modifications: not fully specified
As for B9, the entries for the “EC50 (cAMP reporter)” value in test [4], in test [5] and in test [6] were 1470 pM, 3460 pM and 97 pM, respectively.

B10: mt-219 (SEQ ID NO: 21) (peptide)
peptide: Y[Aib]PGTFISDYSIAMDKIHQQDFVNWLLAQKGKKNWLKHNITQ-NH2
modifications: not fully specified
For the molecule B10, the “EC50 (cAMP reporter)” value was found to be 6160 pM in test [4], 17600 pM in test [5] and 151 pM in test [6]. Also, the entries for the “relative activity (to native hormone)” value in test [4], in test [5] and in test [6] were 0.31%, 0.65% and 16.6%, respectively.

B11: mt-228 (SEQ ID NO: 26) (peptide)
peptide: Y[Aib]PGTFISDYSIAMDKIHQQDFVC(PEG40kDa)WLLAQKGKKNWLKHNITQ-NH2
modifications: not fully specified
Turning to B11, the “EC50 (cAMP reporter)” value in test [4] is 2270 pM; in test [5], 5360 pM; in test [6] it was 146 pM.

B12: Analog No. 34: Aib2, K10acyl, E16, A18, L27, D28, GRG29-31 (SEQ ID NO: 29) (peptide)
peptide: H[Aib]QGTFTSDKSKYLDERAAQDFVQWLLDGRG-NH2
modifications: not fully specified (residue 10)
As for B12, the “EC50 (cAMP reporter)” value is 64 pM in test [1], 7 pM in test [2] and 3 pM in test [3].

B13: Analog No. 36: dSer2, K10acyl, E16, Aib20, E21, L27, D28 (SEQ ID NO: 30) (peptide)
peptide: H[dS]QGTFTSDKSKYLDERRA[Aib]EFVQWLLDT-NH2
modifications: not fully specified (residue 10)
For B13, the “EC50 (cAMP reporter)” value in test [1] worked out at 250 pM; in test [2], 8 pM; in test [3], 3.1 pM.

B14: Analog No. 64: Aib2, E3, K10acyl, E16, Aib20, E21, L27, D28 (SEQ ID NO: 40) (peptide)
peptide: H[Aib]EGTFTSDKSKYLDERRA[Aib]EFVQWLLDT-NH2
modifications: not fully specified (residue 10)
As for B14, the “EC50 (cAMP reporter)” value in test [1] stood at 24 pM; in test [2], 42 pM; in test [3], 6 pM.

B15: Analog No. 53: Aib2, K10acyl, Aib16, A18, V27, K28, G29 + CEX (SEQ ID NO: 35) (peptide)
peptide: H[Aib]QGTFTSDK(Palmitoyl)SKYLD[Aib]RAAQDFVQWLVKGGPSSGAPPPS-NH2
For the molecule B15, the “EC50 (cAMP reporter)” value in test [1] stood at 73 pM; in test [2], 11 pM; in test [3], 5 pM.

B16: mt-225 (SEQ ID NO: 23) (peptide)
peptide: Y[Aib]QGTFTSDYSIYLDEQAAKEFVNWLLAGGPSSGAPPPSK([Ala-Cys(PEG 40 kDa)-Ac])-NH2
modifications: lactam 16-20
Regarding B16, the “EC50 (cAMP reporter)” value was 1900 pM in test [4], 2710 pM in test [5] and 98 pM in test [6].

B17: Analog No. 54: Aib2, K10acyl, Aib16, A18, K27, D28, G29 + CEX (SEQ ID NO: 36) (peptide)
peptide: H[Aib]QGTFTSDKSKYLD[Aib]RAAQDFVQWLKDGGPSSGAPPPS-NH2
modifications: not fully specified (residue 10)
For the molecule B17, the entries for the “EC50 (cAMP reporter)” value in test [1], in test [2] and in test [3] were 171 pM, 8 pM and 4 pM, respectively.
